Laboratory results as given in article PMC9482650, “Quantitative fragmentomics allow affinity mapping of interactomes” (Nature Communications, 2022).

Tests used:
Experiment in all cases: holdup assay
Design in all cases: key: below the threshold = too weak to quantify, mostly under pKd 3.1 to 4
[1] = target: T1, APBA3_1, O96018
T1 sequence (O96018 389-490, limits assumed, looked up): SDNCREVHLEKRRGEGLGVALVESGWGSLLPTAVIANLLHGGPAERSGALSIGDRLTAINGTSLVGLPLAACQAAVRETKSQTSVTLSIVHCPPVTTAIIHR

[2] = target: ARHGEF12, Q9NZN5-2
[3] = target: DLG2_3, Q15700
[4] = target: T2, DVL3, Q92997
T2 sequence (Q92997 244-331, limits assumed, looked up): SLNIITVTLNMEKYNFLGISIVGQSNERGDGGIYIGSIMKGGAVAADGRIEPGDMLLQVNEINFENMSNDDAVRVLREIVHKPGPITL

[5] = target: T3, FRMPD1, Q5SYB0
T3 sequence (Q5SYB0 52-145, limits assumed, looked up): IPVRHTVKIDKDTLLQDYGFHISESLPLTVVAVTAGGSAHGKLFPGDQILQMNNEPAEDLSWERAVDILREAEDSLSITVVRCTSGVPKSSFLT

[6] = target: FRMPD2_1, Q68DX3
[7] = target: FRMPD2_2, Q68DX3
[8] = target: FRMPD2_3, Q68DX3
[9] = target: FRMPD4, Q14CM0
[10] = target: GRASP, Q7Z6J2
[11] = target: GRIP2_4, Q9C0E4
[12] = target: T4, HTRA4, P83105
T4 sequence (P83105 378-476, limits assumed, looked up): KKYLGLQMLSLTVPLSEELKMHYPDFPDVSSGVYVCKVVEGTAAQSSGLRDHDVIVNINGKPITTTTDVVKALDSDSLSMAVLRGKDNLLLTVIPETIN

[13] = target: Inadl_6, Q8NI35
[14] = target: Inadl_8, Q8NI35
[15] = target: LNX1_1, Q8TBB1
[16] = target: LNX1_2, Q8TBB1
[17] = target: MAGI2_3, Q86UL8
[18] = target: MAGI2_6, Q86UL8
[19] = target: NHERF4_4, Q86UT5
[20] = target: T5, PDZD7_3, Q9H5P4
T5 sequence (Q9H5P4 857-944, limits assumed, looked up): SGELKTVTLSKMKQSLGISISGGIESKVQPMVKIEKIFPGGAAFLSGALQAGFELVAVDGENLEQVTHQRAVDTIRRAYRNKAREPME

[21] = target: PDZRN4_1, Q6ZMN7
[22] = target: T6, PTPN13_1, Q12923
T6 sequence (Q12923 1088-1188, limits assumed, looked up): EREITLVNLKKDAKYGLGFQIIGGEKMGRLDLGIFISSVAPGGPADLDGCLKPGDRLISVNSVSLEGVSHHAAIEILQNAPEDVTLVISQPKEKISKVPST

[23] = target: T7, RAPGEF6, Q8TEU7
T7 sequence (Q8TEU7 525-625, limits assumed, looked up): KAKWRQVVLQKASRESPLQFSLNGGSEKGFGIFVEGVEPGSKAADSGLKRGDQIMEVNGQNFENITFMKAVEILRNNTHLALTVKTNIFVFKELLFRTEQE

[24] = target: T8, RHPN1, Q8TCX5
T8 sequence (Q8TCX5 508-602, limits assumed, looked up): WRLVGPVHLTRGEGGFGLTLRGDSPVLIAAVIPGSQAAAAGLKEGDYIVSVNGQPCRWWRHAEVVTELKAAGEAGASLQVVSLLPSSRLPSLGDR

[25] = target: T9, SIPA1L2, Q9P2F8
T9 sequence (Q9P2F8 945-1036, limits assumed, looked up): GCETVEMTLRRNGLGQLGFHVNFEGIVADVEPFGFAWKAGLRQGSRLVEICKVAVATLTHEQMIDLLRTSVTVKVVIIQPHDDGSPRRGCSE

[26] = target: T10, SNTG2, Q9NY99
T10 sequence (Q9NY99 68-166, limits assumed, looked up): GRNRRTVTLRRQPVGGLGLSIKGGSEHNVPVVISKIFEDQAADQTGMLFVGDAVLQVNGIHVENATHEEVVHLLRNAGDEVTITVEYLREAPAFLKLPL

[27] = target: T11, TIAM2, Q8IVF5
T11 sequence (Q8IVF5 885-986, limits assumed, looked up): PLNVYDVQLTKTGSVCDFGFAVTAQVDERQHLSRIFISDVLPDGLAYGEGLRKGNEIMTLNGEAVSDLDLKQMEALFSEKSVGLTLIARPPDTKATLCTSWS

[28] = plain residues with an end cap or a label only (N-terminal biotin on a linker: (peg)3)
[29] = plain residues with an end cap or a label only (N-terminal biotin on a linker: ado-ado)

Chain of ARHGEF12, Q9NZN5-2 (Q9NZN5 other isoform, or with tags, fused parts or gaps): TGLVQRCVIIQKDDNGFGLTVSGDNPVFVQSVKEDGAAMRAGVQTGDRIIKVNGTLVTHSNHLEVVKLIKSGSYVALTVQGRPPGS
Chain of FRMPD2_2, Q68DX3 (Q68DX3 944-1038): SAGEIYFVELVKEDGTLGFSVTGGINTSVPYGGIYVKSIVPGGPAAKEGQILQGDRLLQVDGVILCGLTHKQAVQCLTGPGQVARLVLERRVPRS
Chain of NHERF4_4, Q86UT5 (Q86UT5 464-550): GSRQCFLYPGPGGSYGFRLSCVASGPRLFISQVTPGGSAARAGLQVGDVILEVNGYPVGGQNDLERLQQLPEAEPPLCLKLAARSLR
Chain of MAGI2_6, Q86UL8 (Q86UL8 1141-1229): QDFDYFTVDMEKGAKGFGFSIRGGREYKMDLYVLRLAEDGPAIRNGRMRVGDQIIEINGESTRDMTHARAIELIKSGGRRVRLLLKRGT
Chain of FRMPD2_1, Q68DX3 (Q68DX3 770-861): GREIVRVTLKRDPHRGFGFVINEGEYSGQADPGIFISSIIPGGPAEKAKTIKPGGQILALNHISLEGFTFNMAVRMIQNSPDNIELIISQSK
Chain of GRASP, Q7Z6J2 (Q7Z6J2 96-193): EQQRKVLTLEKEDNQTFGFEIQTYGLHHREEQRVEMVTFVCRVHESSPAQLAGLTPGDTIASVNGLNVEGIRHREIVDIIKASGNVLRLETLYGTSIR
Chain of LNX1_1, Q8TBB1 (Q8TBB1 261-371): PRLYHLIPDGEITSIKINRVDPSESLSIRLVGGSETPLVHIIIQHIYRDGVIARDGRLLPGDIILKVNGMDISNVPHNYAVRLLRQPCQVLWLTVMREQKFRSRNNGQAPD
Chain of LNX1_2, Q8TBB1 (Q8TBB1 371-470): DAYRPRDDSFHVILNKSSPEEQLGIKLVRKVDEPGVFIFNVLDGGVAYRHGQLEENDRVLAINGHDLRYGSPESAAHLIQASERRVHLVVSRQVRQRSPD
Chain of Inadl_8, Q8NI35 (Q8NI35 1425-1530): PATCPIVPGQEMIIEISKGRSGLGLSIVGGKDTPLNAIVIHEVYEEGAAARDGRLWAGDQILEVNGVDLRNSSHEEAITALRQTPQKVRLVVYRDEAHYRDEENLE
Chain of GRIP2_4, Q9C0E4 (Q9C0E4 446-548): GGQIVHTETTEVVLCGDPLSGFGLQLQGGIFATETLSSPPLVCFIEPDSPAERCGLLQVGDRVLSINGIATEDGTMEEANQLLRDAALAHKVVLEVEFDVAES
Chain of FRMPD2_3, Q68DX3 (Q68DX3 1073-1166): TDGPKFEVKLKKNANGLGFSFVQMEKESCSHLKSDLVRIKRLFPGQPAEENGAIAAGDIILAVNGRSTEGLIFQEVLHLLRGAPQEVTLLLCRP
Chain of FRMPD4, Q14CM0 (Q14CM0 67-160): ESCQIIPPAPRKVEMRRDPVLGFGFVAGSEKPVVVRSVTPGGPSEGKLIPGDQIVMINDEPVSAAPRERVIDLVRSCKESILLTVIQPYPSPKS
Chain of MAGI2_3, Q86UL8 (Q86UL8 600-682): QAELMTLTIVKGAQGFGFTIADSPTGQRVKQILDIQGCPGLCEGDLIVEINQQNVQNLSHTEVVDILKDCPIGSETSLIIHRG
Chain of PDZRN4_1, Q6ZMN7 (Q6ZMN7 213-318): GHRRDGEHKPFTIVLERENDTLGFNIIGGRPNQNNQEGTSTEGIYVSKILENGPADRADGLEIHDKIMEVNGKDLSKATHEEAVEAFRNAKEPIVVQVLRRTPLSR
Chain of Inadl_6, Q8NI35 (Q8NI35 1058-1167): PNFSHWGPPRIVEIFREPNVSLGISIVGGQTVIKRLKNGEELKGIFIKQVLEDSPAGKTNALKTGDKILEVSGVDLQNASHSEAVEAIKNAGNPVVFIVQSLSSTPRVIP

QQSMSSADSTQA [SARS-Cov2-N, P0DTC9]
pKd [1, 28]: below the threshold
pKd [2, 28]: below the threshold
pKd [3, 28]: below the threshold
pKd [4, 28]: below the threshold
pKd [5, 28]: below the threshold
pKd [6, 28]: below the threshold
pKd [7, 28]: below the threshold
pKd [8, 28]: below the threshold
pKd [9, 28]: below the threshold
pKd [10, 28]: below the threshold
pKd [11, 28]: below the threshold
pKd [12, 28]: below the threshold
pKd [13, 28]: below the threshold
pKd [14, 28]: below the threshold
pKd [15, 28]: below the threshold
pKd [16, 28]: below the threshold
pKd [17, 28]: below the threshold
pKd [18, 28]: below the threshold
pKd [19, 28]: below the threshold
pKd [20, 28]: below the threshold
pKd [21, 28]: below the threshold
pKd [22, 28]: below the threshold
pKd [23, 28]: below the threshold
pKd [24, 28]: below the threshold
pKd [25, 28]: below the threshold
pKd [26, 28]: below the threshold
pKd [27, 28]: below the threshold

EDPRVEVTQF [SLC22A9, Q8IVM8]
pKd [1, 29]: below the threshold
pKd [2, 29]: below the threshold
pKd [3, 29]: 3.71
pKd [4, 29]: below the threshold
pKd [5, 29]: below the threshold
pKd [6, 29]: below the threshold
pKd [7, 29]: below the threshold
pKd [8, 29]: below the threshold
pKd [9, 29]: below the threshold
pKd [10, 29]: 5.02
pKd [11, 29]: below the threshold
pKd [12, 29]: below the threshold
pKd [13, 29]: below the threshold
pKd [14, 29]: below the threshold
pKd [15, 29]: below the threshold
pKd [16, 29]: below the threshold
pKd [17, 29]: below the threshold
pKd [18, 29]: 3.87
pKd [19, 29]: below the threshold
pKd [20, 29]: 4.23
pKd [21, 29]: below the threshold
pKd [22, 29]: below the threshold
pKd [23, 29]: below the threshold
pKd [24, 29]: 4.4
pKd [25, 29]: below the threshold
pKd [26, 29]: below the threshold
pKd [27, 29]: 4.15

APIAGFSSFV [SDK2, Q58EX2]
pKd [1, 29]: below the threshold
pKd [2, 29]: 4.14
pKd [3, 29]: below the threshold
pKd [4, 29]: 3.88
pKd [5, 29]: below the threshold
pKd [6, 29]: below the threshold
pKd [7, 29]: 4.36
pKd [8, 29]: below the threshold
pKd [9, 29]: below the threshold
pKd [10, 29]: 4.44
pKd [11, 29]: below the threshold
pKd [12, 29]: below the threshold
pKd [13, 29]: 3.72
pKd [14, 29]: 4.34
pKd [15, 29]: 5.16
pKd [16, 29]: below the threshold
pKd [17, 29]: below the threshold
pKd [18, 29]: 4.13
pKd [19, 29]: below the threshold
pKd [20, 29]: 4.63
pKd [21, 29]: 3.79
pKd [22, 29]: below the threshold
pKd [23, 29]: below the threshold
pKd [24, 29]: 4.76
pKd [25, 29]: below the threshold
pKd [26, 29]: below the threshold
pKd [27, 29]: below the threshold

RFQQRMQTHV [KIRREL1, Q96J84]
pKd [1, 29]: below the threshold
pKd [2, 29]: 4.44
pKd [3, 29]: 4.48
pKd [4, 29]: below the threshold
pKd [5, 29]: below the threshold
pKd [6, 29]: below the threshold
pKd [7, 29]: below the threshold
pKd [8, 29]: below the threshold
pKd [9, 29]: below the threshold
pKd [10, 29]: 4.35
pKd [11, 29]: below the threshold
pKd [12, 29]: 4.14
pKd [13, 29]: below the threshold
pKd [14, 29]: 3.72
pKd [15, 29]: below the threshold
pKd [16, 29]: below the threshold
pKd [17, 29]: 3.75
pKd [18, 29]: below the threshold
pKd [19, 29]: below the threshold
pKd [20, 29]: 4.5
pKd [21, 29]: below the threshold
pKd [22, 29]: below the threshold
pKd [23, 29]: below the threshold
pKd [24, 29]: 3.91
pKd [25, 29]: below the threshold
pKd [26, 29]: below the threshold
pKd [27, 29]: 3.97

LAHVKHKEQI [AQP3, Q92482]
pKd [1, 29]: below the threshold
pKd [2, 29]: below the threshold
pKd [3, 29]: below the threshold
pKd [4, 29]: below the threshold
pKd [5, 29]: below the threshold
pKd [6, 29]: below the threshold
pKd [7, 29]: below the threshold
pKd [8, 29]: below the threshold
pKd [9, 29]: below the threshold
pKd [10, 29]: below the threshold
pKd [11, 29]: below the threshold
pKd [12, 29]: 3.79
pKd [13, 29]: below the threshold
pKd [14, 29]: below the threshold
pKd [15, 29]: below the threshold
pKd [16, 29]: below the threshold
pKd [17, 29]: below the threshold
pKd [18, 29]: below the threshold
pKd [19, 29]: below the threshold
pKd [20, 29]: below the threshold
pKd [21, 29]: below the threshold
pKd [22, 29]: below the threshold
pKd [23, 29]: below the threshold
pKd [24, 29]: below the threshold
pKd [25, 29]: below the threshold
pKd [26, 29]: below the threshold
pKd [27, 29]: below the threshold
